Assay: label from the status in PepcDB records

**Q.** For “MATGQDRVVALVDMDCFFVQVEQRQNPHLRNKPCAVVQYKSWKGGGIIAVSYEARAFGVTRSMWADDAKKLCPDLLLAQVRESRGKANLTKYREASVEVMEIMSRFAVIERASIDEAYVDLTSAVQERLQKLQGQPISADLLPSTYIEGLPQGPTTAEETVQKEGMRKQGLFQWLDSLQIDNLTSPDLQLTVGAVIVEEMRAAIERETGFQCSAGISHNKVLAKLACGLNKPNRQTLVSHGSVPQLFSQMPIRKIRSLGGKLGASVIEILGIEYMGELTQFTESQLQSHFGEKNGSWLYAMCRGIEHDPVKPRQLPKTIGCSKNFPGKTALATR”, which protein production is on record?
**A.** failed

**Q.** For “MFQIGEHNMILIYKLTLTKLTEDELKKDFATIPSWATHLDLSNNRLGETSNEELIRVFAKIPGWISHIKLRFNNLGQKNGKDLAKAFAKIPISVTTLDLGSNQLGKKSGEELANAFAGIPTSVTRLILSQNELYKRTGGELATAFAKIPSSVTHLVLVNNGLGEKNGKELATAFANIPSSVTTLDLALNDLSKIKSTELAVIFTKIPTSVTQLDLSHNNLNKKSGKNLAKIFANIPTSVTNLNLSCNELGKKSGKGLAAAFAKIPTSVTDLNIEDNDLDNRTGKELAMAFAHIPAFVNTLRLGDNNLGNKSGEELAEIFAKIPLSVTSLDLRYNELGKRNGKELAIAFAKIPSSVTNLNLKFNHLGKITGEELAMAFANIPTNVDSLVLANNELGAKSGEELAKIFSKIPASITSLNMGNDWFAVIEKLSQQKMVLSTITHVVIDYSSAQEHSAKLKLLATVFPNLNKVTFMDIHGNNALAGQNPIEEAKWLKLCGIKNSVPSLLSQALFFVAKNKEHRSIQDYPSLLPKELTDSISSLLKC”, which protein production is on record?
**A.** failed

**Q.** For “PEVGSSEHKLKIRNIKLSDYDDIFEIMESVYADIGGPWTKKELRSHLNHFPEGQICIEDNGKVIAAAFSLIVNYSNYGDKHTYQQITGDGLLTNHDPEGDTLYGIDIFVHPEFRGLRLGRRLYDARKELCEKLNLRAIIVGGRIPGYKNFAKKLTPRQYIEEVKKKEIFDPVLTFQLANDFHLRKIIQGYLPDDRDSKAYAALLEWKNALYEIEE”, which protein production is on record?
**A.** failed

**Q.** With “MNDGDGTPAAAARERRFGPLGTALVIIPTYNEAENIKAIVTRVREAVPEAHVLVADDNSPDGTGKLADELAAADDHVQVMHRKGKEGLGAAYLAGFRWGLEHGYGVLIEMDADGSHQPEELPRLLTALKGADLVLGSRWVPGGRVVNWPKSREIISRGGSMYSRIALDLPLRDITGGYRAFRRETLEGLGLEEVASQGYCFQVDLARRAIKAGYHVVEVPITFVERELGDSKMSRDILVEALWRVTTWGVGERVGKVLGRDRRSGTAADGQTASSGTDGRTASSDRSTDSLDESAKASDAKA” as the sequence, how does the protein production read?
**A.** failed

**Q.** For “PETYGRLVEPTTLKIERLLPGPIERVWAYLTQSDLRRRWLASGEMRLAPDAPFELVWRNDELSDPPGHRPEGFSEEEKMASRIITVVPPHHLVFSWGESGEVSIELQALGKDVLLTLIHRRLVGRKTKLDVSAGWHVHLDILAARLQEKEPAPFWDTWLALKEEYEPR”, which protein production is on record?
**A.** failed

**Q.** Which protein production does the source give for “MSLKRFDLIIRSSTVVTETTTYRADVAIRNGIVSAITEPGSISSDDGPAIDGTGLHLFPGMVDVHVHFNEPGRTEWEGFASGSKSLAAGGVTTYFDMPLNSNPPTITREELDKKRQLANEKSLVDYRFWGGLVPGNIDHLQDLHDGGVIGFKAFMSECGTDDFQFSHDETLLKGMKKIAALGSILAVHAESNEMVNALTTIAIEEQRLTVKDYSEARPIVSELEAVERILRFAQLTCCPIHICHVSSRKVLKRIKQAKGEGVNVSVETCPHYLLFSLDEFAEIGYLAKCAPPLRERQEVEDLWDGLMAGEIDLISSDHSPSLPQMKTGKTIFEVWGGIAGCQNTLAVMLTEGYHKRKMPLTQIVQLLSTEPAKRFGLYPQKGTIQVGAEASFTLIDLNESYTLNASDLYYRHPISPYVGQRFRGKVKHTICQGKHVYQDHEGHHHHHH” here?
**A.** not failed

**Q.** Which protein production does the source give for “MITLEKEKVTVNPDIKVIKRDGRMVTFDSSKIYEAILKASETITPITPLIETKLEEIANRVVAEINDRFSHNIKIYEIQSIVEHELLEANEYAIAQEYINYRTKRDFERSQATDINFTINKLV” here?
**A.** failed

**Q.** With “MSDLLPLISVYGYVAALLLISEKTLKNEVVSRKFLHIMVGNIAFILPFFESRFVMAFLAAFPFVVLTFLMSPHSPVKLSSRTSVAGHGLGLVYYSIAWTVLAYAFFDRPDVIAVGIMAMSYGDGLASLIGGRYGKRKFRILGDEKSLEGSVAMFLGCVASFSVVSLYYHGSAGPLLLPLAAFATVVEAVTPKGLDNLSVSILTAILYFWMA” as the sequence, how does the protein production read?
**A.** failed

**Q.** With “SAVPGGMFAPSLAVGAGFGLNMSQLLPFLPQSMVVLLGMVGFFAGMTRAPMTGFVIVMEMTDTSGMIIPLMATALIAASVSRLVSRRALYDGQVRLFLPQWRTQAGQ” as the sequence, how does the protein production read?
**A.** failed

**Q.** For “NRCTFACVFCQNYDIVYEDDYIVDARELAYIIDVRRRQGSKNVNFVGGNPDQHAHTIAEILLYVESNVPVVWNSNMYHSEELAEVIEDFVDVWLGDFKYGNDECARKYSKVANYWKVVTRNFLRAKENG”, which protein production is on record?
**A.** failed

**Q.** With “MSKLEFLAFYDELTGLPNKNSLIRWLNLKVSQMDCIDTYLIFLEVRDLEKLNVTYGYDLVDELIIHISKRIKDIAGEGNKAFKIGFDRFAIICKSENISDFIERMLSQLLLPYNVNGNLIRVNFNIGAAQIENSNEAAANLMRRCDLALIKAKEEGLNEYVIFKPSIEIQTLEHHHHHH” as the sequence, how does the protein production read?
**A.** not failed

**Q.** Which protein production does the source give for “PGYTLTRELPLTEYRALYRAAEDTWAARLDWSPEQYDAHFAREDVRLLALRDSEGRPVAFAELELCAPDSRAELTHLAVHPAQRGQGLGRALLALAAAEAAQSPEIRTLRARAHDHMSAARQLYARAGLSHCRAVVTSLREG” here?
**A.** failed

**Q.** For “MSFVSALCRLAVALWVGGATLFTFVLTPTIFRSESRDAAGRIVGYLFPGYFRWGLACGAVALVALLVVRGKNWIPAAALMVVMLAVTAFQALHIEPKAAELKRQIPSFETTTKDHPLRREFSKLHGISAACNLSVIAGGVVLVILL”, which protein production is on record?
**A.** failed

**Q.** For “MEVSENATTRGSLALVSIILPVHNAEQWLDECLMSVLQQDFEGAMELSVFNDASKDKSRAIIEKWKVKLEDSGISVVIGGHDSPSPRGVGYSKNQAVAQSTGSYLCFLDSDDVMMPQRVRMQYEAAGQHPTSIIGCQVRRDPPDSTERYTRWINHLTSDQLLTQVFTSHGPTVIMPTWFCSRAWFSHVGPFDEGGQGVPEDLLFFYEHLRKGGGVFRVDHSLLLYRYHLYAATHSVLEMTIWTHRVHFLEEQVLPHWKSFTIWNAGKQGRKLYRSLTAASRHKVVAFSDVDENKIRKGFYCYEDSQERPKPKVPILHFQAAQSPFVICVKLDLTGGEFEDNLKSLDLQEGRDFVHFS”, which protein production is on record?
**A.** failed

**Q.** With “MPKVTVSIKVVPAVEDGRLHEVIDRAIEKISSWGMKYEVGPSNTTVEGEFEEIMDRVKELARYLEQFAKRFVLQLDIDYKAGGITIEEKVSKYR” as the sequence, how does the protein production read?
**A.** not failed

**Q.** For “MLAMHGSKEKMMTSYQTIIQNHQPLAPARYTAKRIIKNDAEALQIATELSQSFKEKSIQRDAERVLPFDEIEAFSQSGLWAITVPKRYGGAEVSSLTLAKIIALFSGVDGSIGQIPQNHFYALEVLRNTGTEQQKQRLYQEVLSGLRLGNALAEFKPKNASLKQTQIKAIETGYVINGEKFYCTGSLFAHRIPTLVIDEEGREYLAFVRSDSEGLSLIDNWTGFGQRVTGSGGVKFTQVFVAAEDVIPFDSAFQHPTLVGPFAQLMHAAIEVGIARAAFEEALKRVHAARPWIDSNVDAAAQDPLTIYEIGRVAADVHASEALLKHAALTIDEVRLNTNVETIAKASIAVAKIRAHSTETALKASSKLIELAGSRGSQSVDGLDRFWRNARVHTLHDAARWKYYFIGNYVLNDIFPPRRGTL”, which protein production is on record?
**A.** failed

**Q.** For “MPELILKPCEPVRSALKQDVAALEAPPTGGNVDKSATTSNSVTPATSAAPSPAPASEKGEDKDKDSEKEKDKTSAEKSEVKQEQEAEEDKKPGDVKQENPVEEAAGDTKPSDAEVKTEVAKTEPKEETKDPEVKEEPKTEEKEKEKVDDKKPIPPTTVIDDDDDDVMIVKEDGELEKPSASSPKDQKAVAAATSAATGATGK”, which protein production is on record?
**A.** failed

**Q.** For “MNSQEQRGSFYAILSGFLYGFIGYFGISAIHGDLSASNMLFWRFLISSIFILIVLIPQLKNINDTYKSMFTAFLSGVLYYGLSTLLYFYASLYIGSGLSMVIFFTYPVIIMVFNYFFYSQTIPKIYYLAISVILIGMALLIDVNEIAFDLWGIFLGLASAFFYACYIVSSKNNEISPNVSTLMVCLGCMTTSLIVACLDHTFKVPTSFPVWLNLFGIGLVATVIPILLMLHSLKYISSEKASILSVLEPVFVVIFGVVLLGEELKPWHALGIVLVLAGALITLFSHRINLNQWLGAIYKS”, which protein production is on record?
**A.** failed

**Q.** With “MNWSIPNILTVLRLLAAPGVAVMFLYFHRPWADWFALTLFILAAVTDFFDGYLARLWKQESKFGAMLDPIADKAMVVIALVIITGYSGMNPWLILPVTLILFREVFVSGLREFLGAKASLLKVTKLAKWKTTAQMVAIAILFLGTGLEHLEGIARQGMTWEQYARAVSAGEADPIRSCGMHGCSSYATWLGLALIWIAAALTFITGWDYFRKALPYLKDEK” as the sequence, how does the protein production read?
**A.** not failed

**Q.** Which protein production does the source give for “MSLAADKVDILYLEDDEVDIQSVERVFHKISSLIKIEIAKSGNQALDMLYGRNKENKIHPKLILLDINIPKMNGIEFLKELRDDSSFTDIEVFVLTAAYTSKDKLAFESLNIRGHLIKPLDYGEAIKLFWILQSMEGHHHHHH” here?
**A.** not failed

**Q.** Which protein production does the source give for “MEEAKGPVKHVLLASFKDGVSPEKIEELIKGYANLVNLIEPMKAFHWGKDVSIENLHQGYTHIFESTFESKEAVAEYIAHPAHVEFATIFLGSLDKVLVIDYKPTSVSL” here?
**A.** not failed

**Q.** Which protein production does the source give for “MPHPATMFLLLTMAVVFLSWICDIYGLKVTLPQSGEDIRVQSLLSPEGIRWWLRNAIKNFTGFAPLGMVIIAMFGLGVAQHSGFIDACIRLGVGNRKEKRKVILWVIVLGLLSNVIGDGGYIILLPIAAMLFQWVGLHPIAGIVTAYVSVACGYSANIVLSTMDPLLAHTTQEAALTLMGYQGNTEPLCNYFFMSASTVVITGIVYWVTQKWLLPNLGKYEGSVKVEAYRPLSRKERRALMVAVVVAGIYVALILWLTFSSYGILRGVNGGLMHSPFIAGILFLLSLGAGFTGMAYGFSSGRYRSDNDVIEGLTQPIKLLGVYFVIAFFAAQMFACFEYSHLDKCLAIMGADLLSSFEPAPLSALILFILFTAFINLIMVSATSKWAFMSFIFIPMFAQMGISPDVTQCAFRIGDSSTNAITPFLFYMPLVLTYMRQYDKQITYGSLLKYTWRYSLCILAAWTLLFIVWYLLKIPMGL” here?
**A.** failed

**Q.** With “RTDRTALIDLMQALNQHMTYTQGATEVDTSAAQAFAGRSGVCQDHTHAFLACARSLGVPARYVSGYLCSEDSEHLSSHAWAEAWIDDAWYSFDVTNQLAIPERHLKLAVGLDYLDACPVRGMRRG” as the sequence, how does the protein production read?
**A.** failed

**Q.** For “MPLTNNSTTKPQEIAAIDLGSNSFHMVIARVVNGALQVLGRLKQRVHLADGLDSNNMLSEEAIERGLACLALFAERLQGFSPDNVCIVGTHTLRQAANAETFLKRAAEVIPYPIEIISGQEEARLIFMGVEHTQPEKGRKLVIDIGGGSTEMVIGEDFEPLLVESRRMGCVSFAQQFFPGGEISKNNFRRARLAAAQKLENLAWQYRIQGWQYALGASGTIKATYEVLVEMGEKDGLITPERLEMLVENVLQFKQFSALSLPGLSEDRQSVFVPGLAILCGVFDALAIKTLRLSDGALREGVLYEMEGRFRHQDIRQRTAKSLADHYNIDREQARRVLETTEQLYTQWLAQNTKLVQPQLEALLKWAAMLHEVGLSINHSGMHRHSAYILQNTNLPGFNQEQQTLLATLVRMHRKAIKLDELPRLNLFKKKYYLPLIQLLRLSTLLNNQRQSTTTPESLRLITDDSHWTLRFPHGYLTQNSLVQLDFEREQAYWDDVVGWKLVIEEEEPDEAAKVAPEE”, which protein production is on record?
**A.** not failed

**Q.** With “MNTKNLVFVALFSSIMGVLGLIPPIALSITPVPITLQSLGVMLAGGLLGSRLGALSQLIFLLIVGVGAPLLAGGRGGLGVFVGPSAGYLLGYIIGAFVIGYLIERLREVSIIKVLCINIIGGIFVVYVFGITVQAFLMDVSVWETMKVSAVFLPGDCIKAIIAAVLVTKLHRSLKHIITPALKNGKYTNAG” as the sequence, how does the protein production read?
**A.** failed
